The target of experiment [1] is T1, human IL-17F (human, UniProt Q96PD4 31-163).
T1 construct: made in Hek293 cells (GenBank AF384857); also called hIL-17F; hIL17F
T1 sequence: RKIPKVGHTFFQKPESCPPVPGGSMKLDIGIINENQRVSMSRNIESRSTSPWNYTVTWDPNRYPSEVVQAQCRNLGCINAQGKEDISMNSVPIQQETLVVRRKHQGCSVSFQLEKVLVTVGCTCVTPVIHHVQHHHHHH
Briefly: AlphaScreen hIL-17F-IL-17RC; vs IL17MS13E02.

In experiment [2] the target is T2, human IL-17A/F heterodimer (human, UniProt Q16552 24-155; Q96PD4 31-163, limits assumed).
T2 construct: bought, made in E. coli (R&D Systems 5194-IL/CF); also called hIL-17A/F; hIL17A/F
Briefly: SPR (Biacore) off-rate.

Experiment [3] deals with T3, Cynomolgus monkey IL-17A (Cynomolgus monkey, UniProt A0A2K5TTB0 24-155).
T3 construct: also called cyno IL-17A; cIL-17A
Briefly: SPR (Biacore) off-rate. (In general: SPR reads the build-up and loss of mass on a sensor chip optically.)

For experiment [4], the target named is T4, human IL-17A (human, UniProt Q16552 24-155).
T4 construct: secreted form made in Hek293 cells (GenBank U32659); also called hIL-17A; hIL17A
In words: SPR (Biacore) off-rate.
T4 sequence (Q16552 other isoform, or with tags, fused parts or gaps): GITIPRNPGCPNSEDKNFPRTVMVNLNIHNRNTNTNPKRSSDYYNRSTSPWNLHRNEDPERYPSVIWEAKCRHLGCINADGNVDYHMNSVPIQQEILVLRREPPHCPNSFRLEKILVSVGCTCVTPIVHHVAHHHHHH

Experiment [5] concerns the target T4, human IL-17A. In words: AlphaScreen IL-17A-IL-17RA (average).
Experiment [6] concerns the target T4, human IL-17A. Briefly: competition ELISA IL-17A-IL-17RA. For orientation: An ELISA detects its analyte on a solid surface through an enzyme-linked reagent.
For experiment [7], the target named is T2, human IL-17A/F heterodimer. In words: cell-based or functional assay.
Experiment [8] has as its target T4, human IL-17A. In words: cell-based or functional assay.
The target of experiment [9] is T4, human IL-17A. In words: AlphaScreen hIL-17A-IL-17RA; vs IL17MS13B03. In general terms: In Alpha technology, singlet oxygen from a donor bead excites a nearby acceptor bead.
For experiment [10], the target named is T1, human IL-17F. Briefly: AlphaScreen hIL-17F-IL-17RC; vs IL17MS13B03.
For experiment [11], the target named is T2, human IL-17A/F heterodimer. Briefly: cell-based or functional assay. The source holds these as a separate data set.
Experiment [12] concerns the target T4, human IL-17A. In words: cell-based or functional assay. The source holds these as a separate data set.
For experiment [13], the target named is T1, human IL-17F. In words: cell-based or functional assay.
For experiment [14], the target named is T5, Cynomolgus monkey IL-17F (Cynomolgus monkey, UniProt G7P4V0 31-163).
T5 sequence: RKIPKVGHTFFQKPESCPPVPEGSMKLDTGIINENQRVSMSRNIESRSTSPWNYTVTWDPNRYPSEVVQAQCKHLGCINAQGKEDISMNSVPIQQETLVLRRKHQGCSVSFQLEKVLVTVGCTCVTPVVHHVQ
In words: cell-based or functional assay.

Experiment [15] has as its target T2, human IL-17A/F heterodimer. Briefly: SPR (Biacore) off-rate. The source holds these as a separate data set.
The target of experiment [16] is T3, Cynomolgus monkey IL-17A. Briefly: SPR (Biacore) off-rate. This is another data set of the same source.
The target in experiment [17] is T4, human IL-17A. Briefly: SPR (Biacore) off-rate. This is another data set of the same source.
Experiment [18] deals with T1, human IL-17F. Briefly: SPR (Biacore) off-rate.
Experiment [19] deals with T5, Cynomolgus monkey IL-17F. In words: SPR (Biacore) off-rate.
In experiment [20] the target is T1, human IL-17F. In words: SPR (Biacore) off-rate. The source holds these as a separate data set.
Experiment [21] addresses T5, Cynomolgus monkey IL-17F. In words: SPR (Biacore) off-rate. This is another data set of the same source.
The target of experiment [22] is T1, human IL-17F. Briefly: AlphaScreen IL-17F-IL-17RC; vs IL17MS16A04.
For experiment [23], the target named is T1, human IL-17F. Briefly: cell-based or functional assay. This is another data set of the same source.
For experiment [24], the target named is T5, Cynomolgus monkey IL-17F. Briefly: cell-based or functional assay. This is another data set of the same source.
Experiment [25] deals with T6, marmoset IL-17F (marmoset, UniProt A6N6I9 31-163).
T6 sequence (looked up): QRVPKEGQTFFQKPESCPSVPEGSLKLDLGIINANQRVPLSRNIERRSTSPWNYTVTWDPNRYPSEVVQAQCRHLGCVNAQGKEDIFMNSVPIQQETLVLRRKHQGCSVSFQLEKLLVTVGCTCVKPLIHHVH
In words: ELISA, coated IL-17F.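 Note: binding ELISA on coated antigen from various species, with bound Nanobodies revealed by an HRP-linked anti-myc antibody and esTMB substrate.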
Procedure: (§1) Binding of a selected panel of anti-IL-17 Nanobodies to IL-17 of other species was assessed using a binding ELISA. […] HRP (horseradish peroxidase) conjugated anti-myc (Serotec, MCA 2200P) was used for detection using esTMB as substrate.

Experiment [26] deals with T7, mouse IL-17F (mouse, UniProt Q7TNI7 29-161).
T7 sequence (looked up): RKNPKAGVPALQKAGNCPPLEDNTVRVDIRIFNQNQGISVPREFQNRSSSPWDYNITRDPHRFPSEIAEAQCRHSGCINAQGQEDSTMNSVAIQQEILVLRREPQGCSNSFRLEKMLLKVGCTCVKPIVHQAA
In words: ELISA, coated IL-17F.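 Note: binding ELISA on coated antigen from various species, with bound Nanobodies revealed by an HRP-linked anti-myc antibody and esTMB substrate.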
Procedure: as §1

Experiment [27] has as its target T8, rat IL-17F (rat, UniProt Q5BJ95 29-161).
T8 sequence (looked up): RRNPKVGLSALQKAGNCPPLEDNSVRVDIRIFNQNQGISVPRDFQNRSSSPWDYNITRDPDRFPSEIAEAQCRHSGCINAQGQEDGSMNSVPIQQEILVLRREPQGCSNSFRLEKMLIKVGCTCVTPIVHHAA
Briefly: ELISA, coated IL-17F.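 Note: binding ELISA on coated antigen from various species, with bound Nanobodies revealed by an HRP-linked anti-myc antibody and esTMB substrate.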
Procedure: as §1

Experiment [28] addresses T9, human IL-17F (human, UniProt Q96PD4 31-163).
T9 construct: GenBank AF384857, expressed in Hek293 as 6-His C-terminal tagged protein; also called hIL-17F; IL-17F-6HIS
T9 sequence: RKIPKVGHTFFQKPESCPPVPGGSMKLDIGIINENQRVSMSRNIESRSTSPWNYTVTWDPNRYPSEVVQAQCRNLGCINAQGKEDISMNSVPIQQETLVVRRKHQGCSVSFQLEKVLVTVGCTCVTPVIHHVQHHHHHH
Briefly: ELISA, coated IL-17F.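 Note: binding ELISA on coated antigen from various species, with bound Nanobodies revealed by an HRP-linked anti-myc antibody and esTMB substrate.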
Procedure: as §1

In experiment [29] the target is T10, human IL-17A (human, UniProt Q16552 24-155).
T10 construct: secreted form (GenBank U32659) expressed in Hek293 with C-terminal 6-His; also called hIL-17A; IL-17A-6HIS
In words: ELISA, coated IL-17A.
T10 sequence (Q16552 other isoform, or with tags, fused parts or gaps): as the sequence (Q16552 other isoform, or with tags, fused parts or gaps) above
Procedure: as §1

Experiment [30] has as its target guinea pig IL-17A (guinea pig). Briefly: ELISA, coated IL-17A.
Procedure: as §1
For experiment [31], the target named is T11, marmoset IL-17A (marmoset, IL-17A is a disulfide-linked homodimer. One chain is given.).
T11 chain: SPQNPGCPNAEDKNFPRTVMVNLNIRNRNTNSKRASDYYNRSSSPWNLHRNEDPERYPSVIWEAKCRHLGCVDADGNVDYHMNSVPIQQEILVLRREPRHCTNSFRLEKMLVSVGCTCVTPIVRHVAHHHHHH
Briefly: ELISA, coated IL-17A.
Procedure: as §1

The target in experiment [32] is T9, human IL-17F. In words: SPR, IL-17F-Nanobody complex over captured IL-17RC.
Source text: The receptor (IL-17RA or IL-17RC) was captured via its human Fc-tail by an anti-human IgG-Fc antibody coated on the chip.
Experiment [33] concerns the target T9, human IL-17F. In words: KinExA, 100 pM Nanobody.
Procedure: The affinity of a limited set of formatted Nanobodies was determined using the KinExA.

For orientation: koff means the first-order rate constant of dissociation. In general, IC50 refers to the midpoint of a concentration-inhibition curve. In general, Kd refers to the concentration at which binding is half-saturated.

Where two headings read alike, the source gives them in different places.

T2 sequence (Q16552 24-155 limits assumed, one chain of several): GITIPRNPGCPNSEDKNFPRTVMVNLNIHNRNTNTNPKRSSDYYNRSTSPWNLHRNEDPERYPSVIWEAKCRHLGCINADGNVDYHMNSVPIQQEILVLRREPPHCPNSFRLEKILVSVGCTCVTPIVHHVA
T3 sequence (A0A2K5TTB0 entry or part of it): as the sequence (Q16552 24-155 limits assumed, one chain of several) above, with T3A, P8S, N34S, I77V, N78K, P104R counted along it

B1: IL17MS3071 (VHH)
VHH: EVQLVESGGGLVQPGGSLRLSCAASGRTYDALGWLRQAPGKEREFVAAISGSGDDTYYADSVKGRFTISRDNSKNTLYLQMNSLRPEDTAVYYCATRRGLYYVWDANDYENWGQGTLVTVSS
notes: variant of IL17MS13E02; Kabat numbering
On to B1, for which, in experiment [1], the “IC50 fold difference vs WT” value amounted to 0.3 fold.

B2: IL17MS3060 (VHH)
VHH: DVQLVESGGGLVQPGGSLRLSCTASGTIVNIHVMGWYRQAPGKQRELVALIFSGGSADYADSVKGRFTISRDNSKNTVYLQMNSLRPEDTAVYYCAAEIGYYSGGTYYSSEAHWGQGTLVTVSS
notes: variant of IL17MS04G01; basic = A14P, A74S, E81Q, K83R, Q108L
For B2, the koff in [2] was determined as 0.000209 s⁻¹; in experiment [3] it was 0.000154 s⁻¹; in [4], 0.00015 s⁻¹. In addition, the IC50 in experiment [5] is 0.081 nM; in [6] it was 0.181 nM. In addition, the “IC50 cell based assay hIL-17A/F (IL-6, HT-1080 cells)” value in experiment [7] came out at 5.5 nM. Further, in experiment [8], the “IC50 cell based assay hIL-17A (IL-6, HT-1080 cells)” value was 0.93 nM.

B3: IL17MS04G01 (VHH)
VHH: EVQLVESGGGLVQAGGSQRLSCTASGTIVNIHVMGWYRQAPGKQRELVALIFSGGSADYADSVKGRFTISRDNAKNTVYLEMNSLKAEDTAVYYCAAEIGYYSGGTYYSSEAHWGQGTQVTVSS
notes: Class 2 Nanobody, wild type; also called WT
Take B3: the koff in [2] was 0.00017 to 0.00023 s⁻¹; in experiment [3] it was 0.00032 s⁻¹; in experiment [4], 0.000116 s⁻¹. Moreover, the IC50 is 0.093 nM in [5] and 0.122 nM in [6]. Also, the “IC50 cell based assay hIL-17A/F (IL-6, HT-1080 cells)” value in experiment [7] was 7.55 nM. Moreover, the “IC50 cell based assay hIL-17A (IL-6, HT-1080 cells)” value in [8] came out at 0.71 nM.

B4: IL17MS3068 (VHH)
VHH: EVQLVESGGGLVQPGGSLRLSCAASGRASSINWMGWFRQAPGKEREFVAGIRWSDAYTEYADSVKGRFTISRDNSKNTVYLQMNSLRPEDTAVYYCVLDLSTVRYWGQGTLVTVSS
notes: variant of IL17MS13B03; Kabat numbering
For the molecule B4, the “IC50 fold difference compared to WT” value was 1.2 fold in [9] and 0.2 fold in [10].

B5: IL17MS3067 (VHH)
VHH: DVQLVESGGGLVQPGGSLRLSCAASGRASSINWMGWFRQAPGKEREFVAGIRWSDAYTEYADSVKGRFTISRDNSKNTVYLQMNSLRPEDTAVYYCVLDLSTVRYWGQGTLVTVSS
notes: as for B4
For the molecule B5, in experiment [11], the “IC50 cell based assay hIL17A/F” value amounted to 1.8 nM. Moreover, the “IC50 cell based assay hIL17A” value in experiment [12] is 0.7 nM. Further, the “IC50 cell based assay hIL17F” value in [13] was 35 nM. In addition, the “IC50 cell based assay cyno IL17F” value in experiment [14] is 13 nM. The entries for the “IC50 fold difference compared to WT” value in experiment [9] and in experiment [10] were 1.3 fold and 0.2 fold, respectively. Also, the koff in [15] came out at 0.000183 s⁻¹; in [16] it was 0.000126 s⁻¹; in experiment [17], 0.000133 s⁻¹; in experiment [18], 0.00138 s⁻¹; in [19], 0.00166 s⁻¹.

B6: IL17MS3063 (VHH)
VHH: DVQLVESGGGLVQPGGSLRLSCAASGRTFSSYVVGWFRQAPGKEREFIGAISGSGESIYYAVSEKGRFTISRDNSKNTLYLQMNSLRPEDTAVYYCTADQEFGYLRFGRSEYWGQGTLVTVSS
notes: variant of IL17MS16A04; Kabat numbering
As for B6, the koff worked out at 0.000655 s⁻¹ in experiment [20] and 0.00111 s⁻¹ in [21]. In addition, in [22], the “IC50 fold difference vs WT” value is 3.7 fold. In addition, the “IC50 cell based assay hIL-17F” value in [23] worked out at 14 nM. For the same molecule, in [24], the “IC50 cell based assay cyno IL-17F” value came to 34.2 nM.

B7: 16A04 (VHH)
VHH: EVQLVESGGGLVQAGGSLRLSCAASGRTFSSYVVGWFRQAPGKEREFIGAISGSGDSIYYAVSEKDRFTISRDNGKNTLYLQMSSLKAEDTAVYYCTADQEFGYLRFGRSEYWGQGTQVTVSS
notes: Class 3; also called IL17MS16A04
Regarding B7, the OD in experiment [25] was 1.64 OD; in experiment [26], -0.0015 OD; in experiment [27], 0.0015 OD; in [28] it was 1.74 OD; in [29] it was 0.043 OD; in experiment [30], 0.008 OD. Besides, the OD in [31] came out at 0.019 OD. Also, the “% Biacore binding (IL-17F-NB)-IL-17RC” value in experiment [32] was 4.84%. Further, the Kd in experiment [33] was 0.0194 nM.

Source of the values: patent US20210130452A1 (Merck KGaA, published 2021).
